Measured values: publication doi:10.1101/2021.02.26.433003 (bioRxiv, 2021)

Target: the molecule itself
Assay: dynamic light scattering + fluorescence microscopy

B1: Dhh1^48-425 (domain or fragment, yeast, UniProt P39517 48-425, looked up)
chain: FEDFYLKRELLMGIFEAGFEKPSPIQEEAIPVAITGRDILARAKNGTGKTAAFVIPTLEKVKPKLNKIQALIMVPTRELALQTSQVVRTLGKHCGISCMVTTGGTNLRDDILRLNETVHILVGTPGRVLDLASRKVADLSDCSLFIMDEADKMLSRDFKTIIEQILSFLPPTHQSLLFSATFPLTVKEFMVKHLHKPYEINLMEELTLKGITQYYAFVEERQKLHCLNTLFSKLQINQAIIFCNSTNRVELLAKKITDLGYSCYYSHARMKQQERNKVFHEFRQGKVRTLVCSDLLTRGIDIQAVNVVINFDFPKTAETYLHRIGRSGRFGHLGLAINLINWNDRFNLYKIEQELGTEIAAIPATIDKSLYVAENDET
  binding result: binds
